# Reference: US20150111836A1, “CELLULAR APOBEC3 PROTEINS AND MODULATORS THEREOF FOR REGULATING DNA REPAIR PROCESSES AND TREATING PROLIFERATIVE DISEASES” (priority 2012, published 2015)
# Assays:
# [1] = system: ss-deoxyoligonucleotide substrate; assay: Cytidine deaminase activity of purified wild-type and mutant A3G; type: biochemical
# Description: Deaminase activity of purified enzyme and virion-associated A3G protein was examined as previously described. Briefly, A3G deamination reactions were performed in a total volume of 10 μl in 25 mM Tris, pH 7.0, and 0.01-1 fmol single-stranded (ss) deoxyoligonucleotide substrate at 37° C. The reaction was terminated by heating to 95° C. for 5 min. One μl of the reaction mixture was used for PCR amplification performed in 20 μl buffer S, using the following program: 1 cycle at 95° C. for 3 min, followed by 30 cycles of annealing at 61° C. for 30 s and denaturing at 94° C. for 30 s. Aliquots of the PCR products (10 μl) were incubated with Eco147I restriction enzyme for 1 h at 37° C. Completion of the restriction reaction was verified by using positive-control substrate containing CCU instead of CCC. Restriction-reaction products were loaded onto 14% gels and separated by PAGE. Gels were stained with SYBR gold nucleic acid stain diluted 1:10,000 in 0.5× Tris-Borate-EDTA buffer (TBE, pH 7.8), visualized by UV light (312 nm), captured by an Olympus C-5050 charge-coupled device (CCD) camera and analyzed by optical density (OD) scan using the TINA2.0 densitometry software. Assessment of A3G entrapped in virions was carried out with concentrated viruses stocks of 3-5 μg of p24/μl) suspended in PBS containing Triton X-100 at final concentration of 0.1% (vv) and 50 μg/ml RNase A (Sigma-Aldrich). […]
# [2] = system: HRind cells (U2OS-DR-GFP); assay: DR-GFP HR reporter assay of ISceI-induced DSB repair; type: cell-based; settings: expression plasmid transfected, 52 hours after ISceI induction, FIG. 11B
# Description: Repair of a unique ISceI-induced DSB by HR was assessed in U2OS-DR-GFP cells stably transfected with the Cherry-Sce-GR plasmid (HRind cells) as described in Shahar OD et al.. Cherry-ZScel-GR rapidly translocates from the cytoplasm into the nucleus on binding to triamcinolone acetonide (TA). The DR-GFP cassette enables reconstitution of GFP after ZScel-dependent HR between 2 mutated GFP sequences. Transfection of A3G or A3GW285A expression plasmids was performed in 24-well plates with GenJet (Signa-gen). Forty hours after transfection, IScel-directed DSB was induced with 10^7M TA (Sigma-Aldrich). GFP^+ cells were sorted 52 hours later by flow cytometry using FACScan as described in Shahar OD [10].
# [3] = system: primer with 3′-terminal CC; assay: Terminal cytidine deamination, DNA polymerase primer extension / PCR assay; type: biochemical; settings: FIG. 4A
# Description: A3G deaminates the extreme base of the ssDNA 3′-terminus and tethers two ssDNA termini To determine whether A3G interacts with the terminal base of the ssDNA, the inventors tested terminal cytidine deamination by A3G. A primer with 3′-terminal CC was incubated with A3G and was then used for extension and PCR amplification of a target sequence. It was previously shown that A3G W285 residue contributes to formation of a hydrophobic cavity and is essential for catalytic activity. […] A cleavage resistant polynucleotide deaminase substrate, comprising an internal cytidine, was incubated with either A3G or A3G W285A. Upon deamination, the internal uridine-containing polynucleotide was susceptible to restriction, and yielded a fragment which was apparent in the PAGE analysis of the cleaved deamination products shown in FIG. 3C (bottom).
# [4] = system: SC or SU oligonucleotides (80 nt); assay: Electrophoretic mobility shift assay (EMSA) of ssDNA binding; settings: biotinylated SC oligonucleotides (80 nt), FIG. 3B
# Description: SC (10 pmol) was 3′ labeled with dATP-biotin using 10 u terminal deoxynucleotidyl transferase (NEB) in NEBuffer 4 (NEB) supplemented with 0.25 mM CoCl2 and 10 μM dATP-biotin (Invitrogen). Labeled oligos (200 fmol) were incubated with A3G or RPA for 8 or 30 mM, respectively, at room temperature, in EMSA buffer: 50 mM Tris (pH 7.0), 50 mM NaCl, 0.1 mg/mL BSA and 10% glycerol, in 10 μL, reaction volume. Samples were resolved by 6% native PAGE, transferred to a Hybond N nylon membrane (GE Healthcare) using a semi-dry transfer apparatus (Biorad) and UV-crosslinked (302 nm) for 15 min. Following blocking with Casein blocking buffer (Sigma), the membrane was treated with horseradish peroxidase conjugated sterptavidine (Jackson) for 20 mM at RT, washed 6 times with TBS (pH 7.4) and visualized by enhanced chemiluminescence. […] Following incubation with A3G, samples were resolved by PAGE, stained with SYBR Gold (Molecular Probes) and visualized by UV light (302 nm).
# [5] = system: SupT11 cells; assay: γ-H2AX foci in SupT11 cells stably expressing A3G variants after IR; type: cell-based, human; settings: 24 hours after IR (4 Gy), FIG. 9B
# Description: Cells were irradiated by exposure to a ^60Co source producing 1 Gy sec^−1 γ-radiation, or mock-irradiated. Following incubation at 37° C., cells were fixed, attached to glass slides by cytospin, permeabilized with detergent and blocked with 10% normal goat serum. Cells were then incubated with A3G-specific rabbit polyclonal antibody, γ-H2AX-specific monoclonal antibody, or RPA32-specific monoclonal antibody, followed by incubation with goat anti-rabbit Cy-5-conjugated antibody, goat anti-mouse Cy-2-conjugated antibody and DAPI. Slides were mounted and examined by Zeiss LSM 710 confocal microscope. Data were collected sequentially using a ×63 objective with 7-fold averaging at a resolution of […], Z-sections were obtained using an optical slice of less than 1 μm. Data were analyzed with the Zen 2009.
# To assess whether A3G cytidine deaminase activity is required for DSB repair, the inventors examined whether IR-Induced 7412AX focus formation occurred differentially in SupTH cells stably expressing A3G, an E259Q catalytic mutant (as denoted by SEQ ID NO. 90) or empty vector (EV).
# [6] = system: DNA1 and DNA2 ss-oligonucleotides; assay: Terminal ssDNA tethering by DNA polymerase terminal extension; type: biochemical; settings: DNA1+2, FIG. 4D
# Description: DNA1 and DNA2 were annealed to an equimolar amount of a short oligonucleotide (30 nt) complementary to the 5′-termius by heating to 95° C. followed by slow cooling to RT. DNA-polymerase extension reactions were performed in a total volume of 7 μl and included 100 fmol annealed oligonucleotides, 50 μM dNTPs (dCTP, dGTP, dTTP and dATP-biotin (Invitrogen)), NEBuffer 1 (final dilution ×0.35 (NEB)), 1 mg/ml BSA, 100 fmol A3G or A3G W285A, and 5 u Klenow Fragment (3′→5′ exo(−), NEB). Reactions were incubated for 30 min at 37° C. and terminated by heating to 95° C. for 5 min and adding 5 μl formamide. Samples were then heated to 80° C. prior to loading on pre-heated 10% acrylamide gel containing 6M urea. Gels were washed in Tris-Boric acid-EDTA buffer (ph 8.3) for 15 min and transferred to nylon membranes as described in the EMSA protocol below.
# To further investigate A3G-mediated terminal ssDNA tethering, the inventors developed a DNA polymerase extension assay depicted in FIG. 4C. The 5′-termini of two ss-oligonucleotides (DNA1 and DNA2, 80 nt) were annealed to complementary oligonucleotides (30 nt), leaving 3′ ssDNA overhangs. […] As expected, no extension products were detected in the presence or absence of wild-type or mutant A3G (not shown). […]
Molecule,"catalytic activity (cytidine deamination) ([1]; purified protein, FIG. 3C)",reduction of HR [2] [%],PCR amplification after incubation of the primer [3],ssDNA binding properties [4],"dC in the oligonucleotide substrate deaminated ([1]; purified recombinant A3G alone, FIG. 14A) [%]","average DSB load (γ-H2AX focus formation), lower than EV control cells [5]",inhibition of the PCR reaction after incubation of the primer [3] [%],extension efficiency relative to Klenow fragment alone [6],enhancement of DSB repair [5]
"A3G W285A: A3G W285A catalytic mutant, deaminase-dead control that binds ssDNA (protein, A3G W285A mutant) MKPHFRNTVERMYRDTFSYNFYNRPILSRRNTVWLCYEVKTKGPSRPPLDAKIFRGQVYSELKYHPEMRFFHWFSKWRKLHRDQEYEVTWYISWSPCTKCTRDMATFLAEDPKVTLTIFVARLYYFWDPDYQEALRSLCQKRDGPRATMKIMNYDEFQHCWSKFVYSQRELFEPWNNLPKYYILLHIMLGEILRHSMDPPTFTFNFNNEPWVRGRHETYLCYEVERMHNDTWVLLNQRRGFLCNQAPHKHGFLEGRHAELCFLDVIPFWKLDLDQDYRVTCFTSASPCFSCAQEMAKFISKNKHVSLCIFTARIYDDQGRCQEGLRTLAEAGAKISIMTYSEFKHCWDTFVDHQGCPFQPWDGLDEHSQDLSGRLRAILQNQEN",catalytically inactive,6.2,normal PCR amplification,retained wild-type ssDNA binding properties,,,,,
"A3G: wild-type human APOBEC3G, purified with C-terminal His6 tag from 293T cells or expressed in cells (protein, listed as Homo sapiens, C-terminal His6 tag, wild-type human APOBEC3G, purified with C-terminal His6 tag from 293T cells or expressed in cells) MKPHFRNTVERMYRDTFSYNFYNRPILSRRNTVWLCYEVKTKGPSRPPLDAKIFRGQVYSELKYHPEMRFFHWFSKWRKLHRDQEYEVTWYISWSPCTKCTRDMATFLAEDPKVTLTIFVARLYYFWDPDYQEALRSLCQKRDGPRATMKIMNYDEFQHCWSKFVYSQRELFEPWNNLPKYYILLHIMLGEILRHSMDPPTFTFNFNNEPWVRGRHETYLCYEVERMHNDTWVLLNQRRGFLCNQAPHKHGFLEGRHAELCFLDVIPFWKLDLDQDYRVTCFTSWSPCFSCAQEMAKFISKNKHVSLCIFTARIYDDQGRCQEGLRTLAEAGAKISIMTYSEFKHCWDTFVDHQGCPFQPWDGLDEHSQDLSGRLRAILQNQEN",,30.2,,,20,approximately 2 fold,~90,approximately 9 fold,
"A3G E259Q: A3G E259Q catalytic mutant stably expressed in SupT11 cells (protein, A3G E259Q mutant, A3G E259Q catalytic mutant stably expressed in SupT11 cells) MKPHFRNTVERMYRDTFSYNFYNRPILSRRNTVWLCYEVKTKGPSRPPLDAKIFRGQVYSELKYHPEMRFFHWFSKWRKLHRDQEYEVTWYISWSPCTKCTRDMATFLAEDPKVTLTIFVARLYYFWDPDYQEALRSLCQKRDGPRATMKIMNYDEFQHCWSKFVYSQRELFEPWNNLPKYYILLHIMLGEILRHSMDPPTFTFNFNNEPWVRGRHETYLCYEVERMHNDTWVLLNQRRGFLCNQAPHKHGFLEGRHAQLCFLDVIPFWKLDLDQDYRVTCFTSWSPCFSCAQEMAKFISKNKHVSLCIFTARIYDDQGRCQEGLRTLAEAGAKISIMTYSEFKHCWDTFVDHQGCPFQPWDGLDEHSQDLSGRLRAILQNQEN",,,,,,,,,enhanced repair was not observed
